The target in experiment [1] is T1, His6-SUMO-K-Ras WT (human, UniProt P01116-2 1-166). The experiment can be described thus: FACS; GppNHp-loaded.
For experiment [2], the target named is T1, His6-SUMO-K-Ras WT. The experiment is described as follows: FACS; GDP-loaded. (Flow cytometry measures light scatter and fluorescence of single cells or particles in a stream.)
In experiment [3] the target is K-Ras WT (G domain, residues 1-166) (human, UniProt P01116-2 1-166, biotinylated for BLI (site not stated)). The experiment is described as follows: BLI; GppNHp-loaded.
In experiment [4] the target is H-Ras WT (G domain, residues 1-166) (UniProt P01112 1-166, biotinylated for BLI (site not stated)). The experiment is described as follows: BLI; GppNHp-loaded.
Experiment [5] deals with N-Ras WT (G domain, residues 1-166) (UniProt P01111 1-166, biotinylated for BLI (site not stated)). The experiment is described as follows: BLI; GppNHp-loaded.

B1: R11.1.6 expressed on the surface of yeast (designed binder)
chain: ATVKFTHQGEEKQVDISKIKWVIRWGQYIWFKYDEDGGAKGWGYVSEKDAPKELLQMLKKR
Regarding B1, the Kd in the experiment with His6-SUMO-K-Ras WT [1] came to 50.3 nM; in the experiment with His6-SUMO-K-Ras WT [2], 2.8 nM.

B2: SUMO-R11.1.6 fusion protein (designed binder)
chain: ATVKFTHQGEEKQVDISKIKWVIRWGQYIWFKYDEDGGAKGWGYVSEKDAPKELLQMLKKR
Take B2: the Kd turned out to be 41 nM in experiment [3], 10 nM in experiment [4] and 7 nM in experiment [5].

The Kd is the free concentration of one partner at which half of the binding sites on the other are occupied at equilibrium, for simple one-to-one binding. Read a low Kd as tighter binding.
